Measured values reported in the supplement of paper PMC9170038.

System: MS2 coat protein
Assay: apparent KD of MS2 coat protein; designed switch direction (-1 OFF switch, 1 ON switch): -1; higher = weaker reporter binding
Summary of the method: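 For each design, the apparent KD is the median over clusters of curves fitted to normalised cluster fluorescence. Clusters held RNA switches with common flanks, transcribed on Illumina chips by stalled E. coli RNA polymerase. These were titrated with SNAP-549-labelled MS2 coat protein, doubling from 0.7 or 1.5 nM to 3 µM, without input, with 200 uM small-molecule ligand, or with an oligonucleotide input.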

[1] = input ligand: microRNA oligo, concentration not stated
[2] = Eterna round: R95, input ligand: microRNA oligo, concentration not stated
[3] = Eterna round: R95, input ligand: FMN 200 uM
[4] = Eterna round: R95, input ligand: none

| Sequence | apparent KD of MS2 coat protein (input ligand: FMN 200 uM) | apparent KD of MS2 coat protein (input ligand: none) | apparent KD of MS2 coat protein [1] | apparent KD of MS2 coat protein [2] | apparent KD of MS2 coat protein [3] | apparent KD of MS2 coat protein [4] |
| --- | --- | --- | --- | --- | --- | --- |
| UGACAGGCUAGACGAACAAACAUGAGGAUCACCCAUGUCAUUCCAUGUCUGCGUCAUAAGUAGAUGCUCGUAUAUCG [Eternabot (Original) Solution 33] (Eterna round: R97, puzzle: Sensor, turn-off variant 1) | 16.6 nM | 18.1 nM |  |  |  |  |
| UGACCUAAAGGAUAUACAUGAGGAUCACCCAUGUCUUCAGCUGCCGUAAGGGAUCUUAGUAGAAGGUUAGGUCG [Eternabot (L1) Solution 43] (Eterna round: R97, puzzle: Exclusion 3) | 1360 nM | 84 nM |  |  |  |  |
| UGAGAACUGCGAGGAUAUACAUGAGGAUCACCCAUGUAAUAGUGUGAGGCUUUGCCUCACACAAUGUAGAAGGCGCAGUUCUCU [Mat - Exclusion NG 2 - Mod of JL - D7] (Eterna round: R96, puzzle: Exclusion NG 2) | 18.4 nM | 11.9 nM | 10.1 nM |  |  |  |
| UGAGACUGAGGAUAUACUGGCCCAUAAAGUGGGUCGUGGGUACAUGAGGAUCACCCAUGUAGAAGGCAGCCUCG [Omei Repeat Sequence v6] (Eterna round: R97, puzzle: Exclusion 2) | 656 nM | 55.4 nM |  |  |  |  |
| UGAGACUGAGGAUAUACUUGCCCAUAAAGUGGGUAGUGGGUACAUGAGGAUCACCCAUGUAGAAGGCAGCCUCG [Omei Repeat Sequence v3] (Eterna round: R97, puzzle: Exclusion 2) | 597 nM | 46.3 nM |  |  |  |  |
| UGAGAGUGAGGAUAUACGUCGCUGGUCCAGAUGGACGCAUGACAUGAGGAUCACCCAUGUAGAAGGCAUUUCCC [Enxela Mod 8 - Jieux - Exclusion 2] (Eterna round: R97, puzzle: Exclusion 2) | 61.9 nM | 28.4 nM |  |  |  |  |
| UGAGUCUAAGGAUAUCUGAGGCGCGACAUGAGGAUCACCCAUGUCUCCAAGGAGAGAGCUGGAGAAGGUAGCUGGA [Eternabot (L2) Solution 81] (Eterna round: R97, puzzle: Exclusion 5) | 17.6 nM | 18.6 nM |  |  |  |  |
| UGAGUGCUGCGAGGAUAUACAUGAGGAUCACCCAUGUAAUCGUGUGAGGCAAAGCCUCACACGAAGUAGAAGGCGCAGUACUCA [Mat - Exclusion NG 2 - Mod of JL - D18] (Eterna round: R96, puzzle: Exclusion NG 2) | 15.7 nM | 18.6 nM | 12.4 nM |  |  |  |
| UGAGUGCUGCGAGGAUAUACAUGAGGAUCACCCAUGUAAUCGUGUGAGGCUUUGCCUCACACGAAGUAGAAGGCGCAGUACUCU [JL ENG2 1.10] (Eterna round: R96, puzzle: Exclusion NG 2) | 12 nM | 13.5 nM | 9.84 nM |  |  |  |
| UGAGUGCUGCGAGGAUAUACAUGAGGAUCACCCAUGUGGAUCUGUGAGGCUUUGCCUCACAGGAUGUAGAAGGCGCAGUACUCU [JL ENG2 1.19] (Eterna round: R96, puzzle: Exclusion NG 2) | 156 nM | 27.4 nM | 17.8 nM |  |  |  |
| UGAGUGCUGCGAGGAUAUACAUGAGGAUCACCCAUGUGGUCCUGUGAGGCUUUGCCUCACAGGAUGUAGAAGGCGCAGUACUCU [JL ENG2 1.18] (Eterna round: R96, puzzle: Exclusion NG 2) | 82.9 nM | 17.4 nM | 13.8 nM |  |  |  |
| UGAGUGCUGCGAGGAUAUACAUGAGGAUCACCCAUGUUUUCCUGUGAGGCUUUGCCUCACAGGAUGUAGAAGGCGCAGUACUCU [JL ENG2 1.14] (Eterna round: R96, puzzle: Exclusion NG 2) | 9.13 nM | 12.1 nM | 7.33 nM |  |  |  |
| UGAGUGCUGCGAGGAUAUACAUGAGGAUCACCCAUGUUUUCGUGUGAGGCAAAGCCUCACACGAUGUAGAAGGCGCAGUACUCU [Mat - Exclusion NG 2 - Mod of JL - D35] (Eterna round: R96, puzzle: Exclusion NG 2) | 13.2 nM | 16.1 nM | 10.7 nM |  |  |  |
| UGAUCAGACCGAGGAUAUACAGGGAGGACGCACGUGAGUGCGUCCACUACAUGAGGAUCACCCAUGUAGAAGGCGGUCUGAUCU [JL ENG2 1.99] (Eterna round: R96, puzzle: Exclusion NG 2) | 319 nM | 19.9 nM | 16.9 nM |  |  |  |
| UGAUCAGACCGAGGAUAUAUAUGUAGGACGCACGUGAGUGCGUCCAGUACAUGAGGAUCACCCAUGUAGAAGGCGGUCUGAUCU [JL ENG2 1.96] (Eterna round: R96, puzzle: Exclusion NG 2) | 20.3 nM | 13.6 nM | 9.99 nM |  |  |  |
| UGAUCUAGCGGAGGAUAUACAUGAGGAUCACCCAUGUAAGUCGCCUUACCGUAGUGAAGCAUCAUGUAGAAGGCCGCUAGAUCU [MOD4 ENG2 3.62 by JL (unstable but ms2 present in dot)] (Eterna round: R96, puzzle: Exclusion NG 2) | 153 nM | 57.3 nM | 19.9 nM |  |  |  |
| UGAUGUAGAGGAUAUUGUAUGGCUCACAUGAGGAUCACCCAUGUAGGAUCACCUAGAGCCCGAGAAGGCUAGAGGU [Eternabot (L2) Solution 4] (Eterna round: R97, puzzle: Exclusion 5) | 47 nM | 45.8 nM |  |  |  |  |
| UGCAUGCUAGGAUAUACGAAACAUUAGGGUUCUUCGUAUGAACAUGAGGAUCACCCAUGUAGAAGGAGCGUGCU [Mod9 of JL-ex2-2.15 mat747 mod] (puzzle: Exclusion 2) |  |  |  | 31.1 nM |  |  |
| UGCAUGCUAGGAUAUACGGGACAUUAGGGUUCGUCGUGUGGACAUGAGGAUCACCCAUGUAGAAGGAGCGUGCU [Mod3 of JL-ex2-2.15 mat747 mod] (puzzle: Exclusion 2) |  |  |  | 78.2 nM |  |  |
| UGCCAAGCAGGAUAUGCCCGGAAUAACAUGAGGAUCACCCAUGUGACCGAUUGAUGUUCUGCAGAAGGGCAUGGAA [Mat - Exclusion 5 - Eli Mod - D2] (Eterna round: R97, puzzle: Exclusion 5) | 17.2 nM | 35.7 nM |  |  |  |  |
| UGCGAGUAAGGAUAUUCGCGACCGCCCACAAGGGCAGUCGAGAAGAAGGUACUUGAGGAUCACCCAAGUCCUAA [Quondius] (Eterna round: R97, puzzle: Exclusion 4) | 89.8 nM | 20.8 nM |  |  |  |  |
| UGCGGGCUUUUGAGACCUCACAUGAGGAUCACCCAUGUGCUCGUCUUAUGGGCCGGCCGGCCGUUGGCCGGCCGGCC [-44, -68.1 kcal, A 12%] (Eterna round: R97, puzzle: Sensor, turn-off variant 1) | 70.2 nM | 67.8 nM |  |  |  |  |
| UGCUACGGAGGAUAUACAUGAGGAUCACCCAUGUGUGAGAUUAGGCCGAGAGGCCAAUGUAGAAGGCCGUAGCU [jl-ex3-4.21 jl mod] (Eterna round: R97, puzzle: Exclusion 3) | 339 nM | 282 nM |  |  |  |  |
| UGGAAGUGAGGAUAUCCAAUAUAUGACAUGAGGAUCACCCAUGUUUCCACUCGUACCUCCGGAGAAGGCACAAGGU [Ex5 #56] (Eterna round: R97, puzzle: Exclusion 5) | 56.5 nM | 57.3 nM |  |  |  |  |
| UGGACAUGAGGAUCACCCAUGUAAUACACACCUCAGCCACGAGAGGAUAUGCCCGGAGGACCGGCGCAGAAGGCUCCCAAGAGA [Eternabot solution 10] (Eterna round: R96, puzzle: Exclusion NG 3) | 83.8 nM | 48.1 nM | 29.5 nM |  |  |  |
| UGGCUGCUCAGGGAGUGUGACAUGAGGAUCACCCAUGUGGUAGUAAGGAACAAGCUUUUUGCACGUACUUAUGGGUC [JR_SV3TOV1_Sub010] (puzzle: Sensor v3, turn-off variant 1) |  |  |  | 204 nM | 268 nM | 375 nM |
| UGGCUGCUCAGGGAGUGUGACAUGAGGAUCACCCAUGUGGUGGUAGGGAACAAGCUUUUUGCACGUACUUAUGAGUC [JR_SV3TOV1_Sub009] (puzzle: Sensor v3, turn-off variant 1) |  |  |  | 107 nM | 840 nM | 388 nM |
| UGGGUUCCAAGUGAGUCAGACAUGAGGAUCACCCAUGUAUAGCAAGCCUUAGCCGUUCGAGCAAAUGGUCUCGUCAG [Eternabot (Original) Solution 36] (Eterna round: R97, puzzle: Sensor, turn-off variant 1) | 384 nM | 1040 nM |  |  |  |  |
| UGGUAACAUGAGGAUCACCCAUGUCAGGAUAUCAGUAAGAAGAGAGGAGAGUAGAAGAUGAGAAGGGACUAUAU [Excluse me! 9 - Jieux - Exclusion 1] (puzzle: Exclusion 1) |  |  |  | 29.9 nM | 26.4 nM | 37.4 nM |
